Results: patent US20180371433A1 (UNIVERSITY OF FLORIDA RESEARCH FOUNDATION, published 2018)

B1: HvPPA with an N-terminal poly-histidine tag (His6-HvPPA) linked with a thrombin-cleavage site (enzyme)
chain: MVNLWEDMETGPNAPDEIYAVVECLKGERNKYEYDKDIPGVVLDRVLHSNVHYPSDYGFIPQTYYDDEDPFDVLVLVEDQTFPGCVIEARPVALMKMDDDGEQDDKVIAVPVEDPRYDHIEDLDDIPQQTLDEIDEFFATYKNLEAGKEVETLGWEDKQAAKDAIEHAMDLYEENFA
notes: Expressed in Hfx. volcanii H26-pJAM2920; Purified by Ni2+ IMAC and SEC as homo-hexamers (~134 kDa) and homo-trimers (~64 kDa); also called HVO_0729; Haloferax volcanii inorganic pyrophosphatase; not shown: N-terminal His6 tag and thrombin-cleavage site from vector pJAM503
B2: UbaA of Hfx. volcanii (protein)
chain: MTLSLDATQLDRYSRHIIMDEVGPEGQGRLLSSRVVVVGAGGLGAPAIQYLAAVGVGELVVVDDDVVERSNLQRQVVHCDDDVGTPKAESAAAFVRGLNPDVSVEPVEARVDKSNVHEVVAGSDVVVDASDNFPTRYLLNDVCRFEGIPLVHGAIYKFEGQATTLVPDGPCYRCLFPEAPEPGTVPDCATTGVLGVLPGTVGCIQATEAMKLLLDEGEALDGRLLFYDAMDMTFETVPYRTNPDCPVCGEGGVDSIEDIDYVESCAISLD

How the values were obtained:
[1] = molecular target: the molecule itself; assay: size exclusion chromatography (Superdex 200); hexamers of ~134 kDa and trimers of ~64 kDa
Method: HvPPA (HVO_0729, UniProt: D4GT97) was expressed with an N-terminal poly-histidine tag (His₆) in Hfx. volcanii H26-pJAM2920 (Table 1). Hfx. volcanii cells were grown to stationary phase (OD₆₀₀ of 3-3.5) (4×1-liter cultures in 2.8-liter Fernbach flasks) and harvested by centrifugation (10-15 min at 9,200× g and 25° C.). Cell pellets were resuspended at 5 ml per g wet weight cells in Tris-salt buffer (20 mM Tris-HCl, pH 7.5, 2 M NaCl and 2.5 mM MgCl₂) supplemented with 40 mM imidazole and 1 mini-tablet protease inhibitor cocktail (Roche product no. 05892791001) per 10 ml buffer. Cells were lysed by passing through a French Press (three times at 20,000 psi). Whole cell lysate was clarified by centrifugation (twice for 30 min at 9,200× g and 4° C.) and sequential filtration using 0.8 μm and 0.2 μm cellulose acetate filters (Thermo Scientific Nalgene). Clarified cell lysate was applied to a HisTrap HP column (5 ml, 17-5248-01, GE Healthcare) pre-equilibrated and washed in 100 ml of Tris-salt buffer with 40 mM imidazole. Fractions containing HvPPA were eluted in Tris-salt buffer with a 25 ml gradient from 40 mM to 500 mM imidazole. […] Purity of HvPPA was assessed by Coomassie Blue stained SDS-PAGE gels and PPi activity assay. […]

[2] = molecular target: T1, SAMP1 with deletion of the C-terminal diglycine residues (ΔGG), D4GUF6
T1 chain: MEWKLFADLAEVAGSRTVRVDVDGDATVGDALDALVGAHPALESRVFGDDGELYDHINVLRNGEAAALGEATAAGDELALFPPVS

[3] = molecular target: T2, ubiquitin-like SAMP1, D4GUF6
T2 chain: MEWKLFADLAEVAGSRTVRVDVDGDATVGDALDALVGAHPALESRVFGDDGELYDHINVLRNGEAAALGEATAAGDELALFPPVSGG

Protein	binding result [1]	Pi detected by colorimetric (malachite green) assay in the HvPPA-coupled adenylation assay [2]	Pi detected by colorimetric (malachite green) assay in the HvPPA-coupled adenylation assay [3]
B1	binds		
B2		Deletion of the C-terminal diglycine residues of SAMP1 (ΔGG) were found to significantly reduce the level of Pi detected by this assay	Significant levels of Pi were detected when UbaA and HvPPA were coupled with ATP and SAMP1 in the reaction
